Measured values as given in publication PMC13234300, “De novo and scaffold-based design of GDF15 binders for cancer cachexia diagnostics and therapeutics” (Experimental & Molecular Medicine, 2026).

Tests used:
[1] = molecular target: recombinant mature human GDF15 dimer, N-glyco-engineered variant (R198N and G200T), Twin-Strep tagged (human) (UniProt Q99988); test: SPR
[2] = molecular target: T1, recombinant mature human GDF15 dimer, N-glyco-engineered variant (R198N and G200T), Twin-Strep tagged (human, UniProt Q99988 198-308, R198N | G200T); test: SPR; Biacore T200; GDF15 dimer immobilised on CM5 chip by amine coupling (10 mM sodium acetate, pH 5.5); HBS-EP+ (0.01 M HEPES pH 7.4, 0.15 M NaCl, 3 mM EDTA, 0.05% P20); analytes 5-100 nM, 300 s association, 300 s dissociation, 30 μl/min; two-state reaction model; conditions: both partners purified
T1 construct: mature human GDF15, residues 198–308, N-glyco-engineered variant (R198N and G200T); no cleavage step is described (eluted with desthiobiotin, then SEC); also called Twin-Strep-GDF15 dimer; growth differentiation factor-15; source: Expi293F, transfected, purified from supernatant (Strep-Tactin-XT, SEC)
T1 sequence (looked up): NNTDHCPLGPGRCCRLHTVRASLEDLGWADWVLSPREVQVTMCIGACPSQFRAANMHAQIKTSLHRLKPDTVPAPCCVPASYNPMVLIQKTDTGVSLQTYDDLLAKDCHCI

[3] = molecular target: T2, recombinant mature human GDF15 dimer, N-glyco-engineered variant (R198N and G200T), Twin-Strep tagged (human, UniProt Q99988 198-308, R198N | G200T); test: SPR
T2 sequence: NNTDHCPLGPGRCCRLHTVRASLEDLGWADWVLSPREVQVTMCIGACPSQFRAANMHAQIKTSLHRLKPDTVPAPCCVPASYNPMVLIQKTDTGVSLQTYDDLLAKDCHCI

[4] = molecular target: T1, recombinant mature human GDF15 dimer, …; test: SPR; Biacore T200; GDF15 dimer immobilised on CM5 chip by amine coupling; HBS-EP+; analyte 5-50 nM in the figure; 1:1 binding model; apparent (avidity of the Fc dimer); conditions: both partners purified

ponsegromab was tested, and the Kd [1] was 0.0802 nM and the koff [1] was 2.24e-05 s⁻¹.

B1: human GFRAL D2 domain (residues 115–217) (domain or fragment, UniProt Q6UXV0 115-217, looked up)
chain: WNLTTRSHHGFKGMWSCLEVAEACVGDVVCNAQLASYLKACSANGNPCDLKQCQAAIRFFYQNIPFNIAQMLAFCDCAQSDIPCQQSKEALHSKTCAVNMVPP
notes: human GFRAL (glial cell-derived neurotrophic factor family receptor alpha-like), D2 domain, residues 115–217; the expressed construct as residues 115–217; also called hGFRAL D2; initial scaffold; source: Expi293F, transfected, purified (protein A, on-resin thrombin cleavage, SEC); not shown: Fc, C-terminal, cleaved
For B1, the Kd [2] was 90.4 nM.

B2: SGA2-4-Fc (Fc-fused SGA2-4 binder, homodimeric decoy receptor) (Fc fusion)
chain: VTVFEALDAIIADPQSNAALAAHLKAVAALPADATKAQVDAIYDAFLAQLPAEVRAKVLAAKPDPTNPDEIQLYNQLRGYDKL
modifications: Homodimer through a C-terminal human IgG Fc (isotype and limits not given). The Fc, thrombin site and 6xHis tag are left out; the Fc only provides bivalency/avidity. Expressed in mammalian cells.
B2 was tested, and the koff [3] was 7.16e-05 s⁻¹ and the Kd [4] was 0.081 nM.
